Consider three molecules from US20140086913A1 (Gilead, published 2014).

In experiment [1] the target is DDR1 stably over-expressed in HCT-116 tumor cells (UniProt Q08345). As to the kind of experiment: cell-based or functional assay.
Experiment [2] deals with DDR1 with a ProLink Tag (PK) in engineered U20S cells (DiscoveRx) (UniProt Q08345). As to the kind of experiment: cell-based or functional assay.
For experiment [3], the target named is T1, mouse DDR1 stably expressed on HEK293 cells (mouse, UniProt Q03146 20-911).
T1 construct: whole, on cells; also called murine DDR1
T1 sequence (looked up): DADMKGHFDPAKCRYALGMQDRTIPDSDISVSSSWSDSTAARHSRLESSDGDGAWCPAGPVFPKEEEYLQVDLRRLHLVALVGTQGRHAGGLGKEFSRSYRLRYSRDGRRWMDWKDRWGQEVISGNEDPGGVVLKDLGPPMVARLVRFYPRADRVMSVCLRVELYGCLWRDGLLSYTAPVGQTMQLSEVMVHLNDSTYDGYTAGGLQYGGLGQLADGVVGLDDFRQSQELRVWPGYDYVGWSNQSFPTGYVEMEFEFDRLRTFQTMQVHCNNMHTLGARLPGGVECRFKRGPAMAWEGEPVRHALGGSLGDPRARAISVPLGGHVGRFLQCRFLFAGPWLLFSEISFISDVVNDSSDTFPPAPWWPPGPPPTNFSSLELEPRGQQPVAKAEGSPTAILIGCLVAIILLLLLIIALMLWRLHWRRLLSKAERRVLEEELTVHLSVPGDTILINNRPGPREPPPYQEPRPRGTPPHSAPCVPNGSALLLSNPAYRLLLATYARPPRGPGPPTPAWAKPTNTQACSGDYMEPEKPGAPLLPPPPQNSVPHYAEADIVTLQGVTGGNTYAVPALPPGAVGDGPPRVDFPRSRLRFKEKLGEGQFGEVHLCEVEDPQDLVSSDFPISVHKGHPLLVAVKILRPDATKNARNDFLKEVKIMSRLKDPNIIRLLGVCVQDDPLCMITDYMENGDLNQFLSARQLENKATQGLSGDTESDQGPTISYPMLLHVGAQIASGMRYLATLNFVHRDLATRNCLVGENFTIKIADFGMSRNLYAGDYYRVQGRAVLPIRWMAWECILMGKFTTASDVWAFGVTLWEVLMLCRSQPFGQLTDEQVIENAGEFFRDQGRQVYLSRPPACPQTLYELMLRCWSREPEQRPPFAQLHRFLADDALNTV
As to the kind of experiment: flow cytometry on transfected HEK293 cells.

Another experiment addresses T2, mouse ECD-DDR1-Fc (mouse; human, UniProt Q03146 22-414).
T2 construct: also called mouse DDR1-ECD; wild-type mouse DDR1-ECD; not shown: human IgG1 Fc of the vector pFuse-hIgG1-Fc1 (Invivogen)
T2 sequence: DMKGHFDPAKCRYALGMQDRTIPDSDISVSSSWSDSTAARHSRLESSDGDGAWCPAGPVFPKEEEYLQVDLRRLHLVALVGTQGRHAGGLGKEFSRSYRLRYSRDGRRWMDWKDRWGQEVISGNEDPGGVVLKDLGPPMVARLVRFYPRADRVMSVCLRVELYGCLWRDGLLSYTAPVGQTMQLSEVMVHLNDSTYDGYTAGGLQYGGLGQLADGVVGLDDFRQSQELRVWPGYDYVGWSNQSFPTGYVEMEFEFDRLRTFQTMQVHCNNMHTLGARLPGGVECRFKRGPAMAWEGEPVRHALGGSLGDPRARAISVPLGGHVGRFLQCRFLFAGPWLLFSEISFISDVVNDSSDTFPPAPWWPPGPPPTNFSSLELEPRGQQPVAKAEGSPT
Nature of the experiment: ELISA, coated antigen. An outline of the steps:
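Plates coated overnight at 4° C with 2 μg/mL purified tagged DDR1 ECD protein, BSA-blocked; serially diluted murine anti-DDR1 mAbs bound 1 hr at room temperature, detected with anti-mouse IgG-HRP and TMB (OD 450). Apparent KD taken as C-parameter of 4-parameter logistic fit of OD versus antibody concentration.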
In general terms: ELISA stands for enzyme-linked immunosorbent assay.

For experiment [4], the target named is DDR1 endogenously expressed on human cancer cell lines (T47D, HCT-116, A431) (human) (UniProt Q08345). As to the kind of experiment: cell-based or functional assay.

DDR1 stably over-expressed in HCT-116 tumor cells, sequence (Q08345 19-913): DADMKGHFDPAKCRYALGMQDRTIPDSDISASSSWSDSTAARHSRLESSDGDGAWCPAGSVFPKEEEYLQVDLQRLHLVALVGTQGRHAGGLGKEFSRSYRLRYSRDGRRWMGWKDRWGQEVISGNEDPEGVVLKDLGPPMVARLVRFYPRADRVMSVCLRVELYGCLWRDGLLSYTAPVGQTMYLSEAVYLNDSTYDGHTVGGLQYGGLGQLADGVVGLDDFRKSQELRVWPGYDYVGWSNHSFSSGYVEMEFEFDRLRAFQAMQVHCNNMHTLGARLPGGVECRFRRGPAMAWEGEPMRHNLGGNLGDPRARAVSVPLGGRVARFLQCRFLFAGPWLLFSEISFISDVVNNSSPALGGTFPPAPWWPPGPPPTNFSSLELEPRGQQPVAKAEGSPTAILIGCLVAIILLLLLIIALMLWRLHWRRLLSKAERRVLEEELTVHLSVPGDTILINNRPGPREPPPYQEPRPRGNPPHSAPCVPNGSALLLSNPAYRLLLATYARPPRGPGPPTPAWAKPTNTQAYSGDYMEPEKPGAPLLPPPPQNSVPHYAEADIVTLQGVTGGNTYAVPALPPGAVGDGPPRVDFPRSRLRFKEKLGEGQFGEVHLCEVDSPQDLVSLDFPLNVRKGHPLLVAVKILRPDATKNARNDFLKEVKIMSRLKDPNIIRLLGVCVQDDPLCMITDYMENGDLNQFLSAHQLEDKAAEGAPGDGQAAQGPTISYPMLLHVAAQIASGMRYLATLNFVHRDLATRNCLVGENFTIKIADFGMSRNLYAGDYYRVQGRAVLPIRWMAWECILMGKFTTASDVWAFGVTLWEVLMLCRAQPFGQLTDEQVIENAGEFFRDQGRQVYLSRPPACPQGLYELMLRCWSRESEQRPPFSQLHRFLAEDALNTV

B1: AB2078 (antibody, V domains shown)
VH: EIQLQQSGPELVNPGASVKVSCKASGYSFTDYNMYWVKQSHGKSLEWIGYIDPYNGGTSYNQKFKGKATLTVDKSSSTAFMHLNSLTSEDSAVYYCAREYYGSRLWYFDVWGAGTAVTVSS
VL: DIVMTQSPSSLAMSVGQKVTMSCKSSQSLLNRNNQKNYLAWYQQKPGQSPKLLVYFASTRESGVPDRFIGSGSGTDFTLTLSSVRAEDLAENFCQQHYSTPFTFGSGTRLEIKR
notes: mouse hybridoma mAb
In experiment [1], B1 came in with an EC50, NFkB luciferase reporter (HCT-116, collagen II) of 3.01 nM and an EC90, NFkB luciferase reporter (HCT-116, collagen II) of 6.66 nM. The molecule further yielded a Mean EC50, DDR1 Tyr513 phosphorylation assay (U20S) in experiment [2] of 1.33 nM.

B2: AB2041 (antibody, V domains shown)
VH: QVQLHQSGSELAKPGASVKMSCKASGYIFTTYWIHWLKQRPGQGLEWIGFINPDTDYTEYNQKFKDKATLTADKSSNTAYVQLSSLTSEDSAVYYCARGNYGYDGLVYWGLGTLVTVSA
VL: SIVMTQTPKFLLVSAGDRVTITCKASQSVSTDVAWYQQKPGQSPKLLIYYASNRYTGVPDRFTGSGYGTDFTFTISTVQAEDLAVYFCQQDYNSYTFGGGTKLEIKR
notes: mouse hybridoma mAb
In the case of B2, the binding result in experiment [3] is recorded as “binds”. Further, the binding result with mouse ECD-DDR1-Fc was “no binding”. In experiment [4], this molecule showed an EC50, DDR1 phospho-specific ELISA (T47D) of 0.72 nM; an EC50, cluster formation assay (A431 cells) of 2.03 nM; a Maximal inhibition, DDR1 phospho-specific ELISA (T47D) of 100%.

B3: AB2092 (antibody, V domains shown)
VH: QIQLVQSGPELKKSGETVKISCKASGYTFTDYGMNWVKQAPGKGLKWMGWINTYTGKSTYADDFKGRFAFSLETSASTTYLQITNLKNEDMATYFCARWADYFGSSYLFASWGQGTLVTVSA
VL: DVLMTQTPLSLPVSLGDQASISCRSSQSIVHSDGNTYLEWYLQKPGQSPKLLIYKVSNRFSGVPDRFSGSGSGTDFTLKISRVEAEDLGIYYCFQGSHVPWTFGGGTKLEIKR
notes: mouse hybridoma mAb
As to B3, in experiment [4], the EC50, DDR1 phospho-specific ELISA (T47D) worked out at 0.52 nM; the EC50, cluster formation assay (A431 cells) came to 4.18 nM; the Maximal inhibition, DDR1 phospho-specific ELISA (T47D) is 100%.
